Data published in FireProtDB (doi:10.1016/0022-2836(92)90907-2).

B1: Ribonuclease, P00648 (parent)
chain: MMKMEGIALKKRLSWISVCLLVLVSAAGMLFSTAAKTETSSHKAHTEAQVINTFDGVADYLQTYHKLPDNYITKSEAQALGWVASKGNLADVAPGKSIGGDIFSNREGKLPGKSGRTWREADINYTSGFRNSDRILYSSDWLIYKTTDHYQTFTKIR

Variants of: B1
Settings: Bacillus amyloliquefaciens; pH 6.3; 25 °C; Urea; Fluorescence; MES 450 mM; reversible: yes; structure 1BNI; whole UniProt chain shown

Row | Variant | ddG of mutation (higher = less stable) [kcal/mol] | denaturant m value [kcal/mol/M] | denaturant midpoint (higher = more stable) [M] | unfolding free energy [kcal/mol]
1 | A79L | -0.08 | 2.02 | 4.4 | 8.91
2 | A79H | 0.7 | 1.94 | 4.1 | 8.13
3 | A79P | 4.12 | 1.89 | 2.4 | 4.71
4 | A79F | 0.43 | 1.98 | 4.2 | 8.4
5 | A79D | 0.41 | 1.99 | 4.2 | 8.42
6 | A79K | 0.1 | 1.94 | 4.5 | 8.73
7 | A79V | 0.34 | 2.05 | 4.1 | 8.49
8 | A79S | 0.16 | 1.98 | 4.3 | 8.67
9 | A79M | 0.08 | 1.97 | 4.4 | 8.75
10 | A79Q | 0.35 | 1.95 | 4.3 | 8.48
11 | A79W | 1.14 | 1.88 | 4 | 7.69
12 | A79Y | 0.7 | 1.95 | 4.1 | 8.13
13 | A79C | 1.85 | 1.71 | 4 | 6.98
14 | A79E | -0.13 | 2.08 | 4.3 | 8.96
15 | A79G | 0.65 | 1.98 | 4.1 | 8.18
16 | A79R | 0.2 | 1.91 | 4.5 | 8.63
17 | A79N | 0.33 | 2 | 4.2 | 8.5
